For the data set, the system named is ATP. The experiment in a line: switch fluorescence ratio, 500 uM ATP over buffer (Cy3 cluster intensity, sum of 5 cycles each) (fold (ratio)); higher = stronger signal-on switching upon ATP binding; sequences stand for … in TCGTCGGCAGCGTCAGATGTGTATAAGAGACAGTTTTTTTTTTTTTTTTTTTTTTTTT…TC. The settings on record: aptamer strand: ATP DNA aptamer (quencher-CACCTGGGGGAGTATTGCGGAGGAAGG + anchor), 100 nM annealed; ATP concentration: 500 uM. The method in brief: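 Between each of five buffer/ATP cycles, the flow-cell was stripped with NaOH and re-annealed. Each cycle imaged Cy3-labelled switching-strand clusters, annealed to 100 nM quencher-labelled ATP aptamer on a modified Illumina MiSeq flow-cell, first in selection buffer and then after 15 min with 500 uM ATP at 22 °C. The fluorescence ratio is summed target-cycle over summed buffer-cycle Cy3 intensity per cluster, averaged per switch-domain sequence, with clusters outside 100-1000 RFU excluded.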

± gives the standard deviation of the averaged measurements.
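Further: ATP exposure 15 min at 22 °C before imaging.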

On to CCAGTATTTT, for which the switch fluorescence ratio is 0.999 ± 0.015.

Take CATTATCTGG: the switch fluorescence ratio is 1.01 ± 0.072.

Regarding GTTGTTGGGG, the switch fluorescence ratio was 0.974 ± 0.043.

On to AATGGGTCTA, for which the switch fluorescence ratio was determined as 0.985 ± 0.02.

For TATTTTGTGC, the switch fluorescence ratio came to 1.02 ± 0.012.

With GAGGTAAAAT, the switch fluorescence ratio was determined as 0.968 ± 0.016.

As for TAGTGAAAGT, the switch fluorescence ratio worked out at 1.007 ± 0.0071.

Consider TATCGTCGGA, for which the switch fluorescence ratio worked out at 0.9823 ± 0.0035.

In the case of TTCATGCTTT, the switch fluorescence ratio worked out at 0.9882 ± 0.0097.

As to TTTTCTGGCT, the switch fluorescence ratio was 1.04 ± 0.035.

For TAAAAGGGTG, the switch fluorescence ratio is 0.977 ± 0.033.

With CGGAGGGAAT, the switch fluorescence ratio came to 2.91 ± 2.3.

Take ATTGGCAATA: the switch fluorescence ratio was determined as 2.36 ± 1.9.

As for TGGGGGTCTA, the switch fluorescence ratio is 0.971 ± 0.031.

For the sequence GCCTCGGGGC, the switch fluorescence ratio was 1.02 ± 0.032.

With CGGTGTGGGT, the switch fluorescence ratio came to 1.03 ± 0.0023.

Regarding GATAAAATGC, the switch fluorescence ratio is 1.02 ± 0.044.

For the sequence TGTTGAGCAA, the switch fluorescence ratio came out at 1.6 ± 0.013.

Turning to ACCTAGTGGG, the switch fluorescence ratio is 1.005 ± 0.0087.

For TACAGCTAAA, the switch fluorescence ratio came to 1.03 ± 0.032.

ATAGCAGTTT: the switch fluorescence ratio was determined as 1.02 ± 0.013.

Regarding CAGGGTTATT, the switch fluorescence ratio came out at 0.995 ± 0.02.

Take AGGCTGTCAC: the switch fluorescence ratio amounted to 0.996 ± 0.013.

As for CAAGAGTGGG, the switch fluorescence ratio came to 1.01 ± 0.032.

For the sequence TGGATGGGAG, the switch fluorescence ratio is 0.9922 ± 0.0028.

As for CGGGTATTTG, the switch fluorescence ratio turned out to be 1.04 ± 0.028.

In the case of CAAGGCATTC, the switch fluorescence ratio was 1.32 ± 0.059.

On to TATTACTCAG, for which the switch fluorescence ratio was found to be 1.03 ± 0.025.

As to CTATAGGGGG, the switch fluorescence ratio was determined as 1.007 ± 0.01.

GGTCCCGGTG: the switch fluorescence ratio is 1.1 ± 0.013.

In the case of AGAGGGGGAA, the switch fluorescence ratio is 0.978 ± 0.014.

Turning to TGGATTGTGT, the switch fluorescence ratio is 0.9735 ± 0.0032.

For the sequence CGGTGCATGA, the switch fluorescence ratio amounted to 1.027 ± 0.0092.

Take TTGGGCTCTA: the switch fluorescence ratio turned out to be 1.002 ± 0.0012.

Regarding AATTCCGGTC, the switch fluorescence ratio stood at 1.093 ± 0.0066.

GGGAAGGGTT: the switch fluorescence ratio came out at 0.998 ± 0.029.

Consider TGTTTTGTAT, for which the switch fluorescence ratio stood at 1.07 ± 0.052.

For TCTGGCGGC, the switch fluorescence ratio was 0.981 ± 0.039.

Turning to GGAGGCAGTT, the switch fluorescence ratio turned out to be 0.9738 ± 0.006.

For GAATAGGGTA, the switch fluorescence ratio came out at 0.98 ± 0.018.

Turning to GACATATACA, the switch fluorescence ratio turned out to be 1.07 ± 0.025.

In the case of CGAGAGGAAA, the switch fluorescence ratio is 0.9804 ± 0.0046.

Turning to TTTATGAGAT, the switch fluorescence ratio was determined as 1 ± 0.027.

On to GTGTTGAACG, for which the switch fluorescence ratio came out at 1.04 ± 0.071.

As to AACACGAATT, the switch fluorescence ratio came out at 0.998 ± 0.025.

In the case of GGGCTATTTT, the switch fluorescence ratio came to 0.991 ± 0.031.

Regarding CGGGTTAGAG, the switch fluorescence ratio was 0.968 ± 0.019.

For the sequence TTATGTGTTG, the switch fluorescence ratio came out at 1.01 ± 0.011.

Turning to AATTGCTTTC, the switch fluorescence ratio was found to be 1.06 ± 0.013.

On to GGGTAAAACT, for which the switch fluorescence ratio amounted to 1.0166 ± 0.00025.

Regarding TGTTCCGTCT, the switch fluorescence ratio is 0.9732 ± 0.0095.

As for AAAGGTTTGG, the switch fluorescence ratio was found to be 0.976 ± 0.035.

CCGGGGTTTG: the switch fluorescence ratio was 0.998 ± 0.019.

As for ATGTTAAGGA, the switch fluorescence ratio was 0.998 ± 0.012.

On to TCGTGTATGT, for which the switch fluorescence ratio came out at 1.014 ± 0.0039.

Consider ATAGTGATCG, for which the switch fluorescence ratio stood at 0.994 ± 0.042.

Regarding TATTTTAGTT, the switch fluorescence ratio was determined as 1.02 ± 0.023.

For the sequence TGTTAAGGGC, the switch fluorescence ratio amounted to 1 ± 0.039.

For GTGTGACAGA, the switch fluorescence ratio was 1.01 ± 0.014.

Regarding AAGTGTGTTC, the switch fluorescence ratio was 0.999 ± 0.016.

As for AATCTCGGCC, the switch fluorescence ratio turned out to be 0.986 ± 0.015.

Regarding TAAGCGGGAC, the switch fluorescence ratio was found to be 2.88 ± 2.

For ATTCGGGTTG, the switch fluorescence ratio was 0.985 ± 0.029.

As to GTAGGGGCCT, the switch fluorescence ratio worked out at 1.057 ± 0.0073.

On to GTGTTTACTT, for which the switch fluorescence ratio is 1.01 ± 0.021.

Take ACCAATGGGG: the switch fluorescence ratio stood at 1.02 ± 0.036.
